First the molecules themselves.
T1: CueO (M358I) (E. coli, UniProt P36649 29-516, M358I)
T1 construct: signal peptide in the construct (primer 1 begins at the precursor's ATG); E. coli multi-copper oxidase CueO, gene amplified from JM109 genomic DNA with primers 1 and 2; The M358I mutation arose during cloning and is present in all variants; The signal peptide may be cut in E. coli (surmise; the solved variants are modelled from residue 29 or 30); source: E. coli BL21(DE3), purified (HisTrap)
T1 sequence (looked up): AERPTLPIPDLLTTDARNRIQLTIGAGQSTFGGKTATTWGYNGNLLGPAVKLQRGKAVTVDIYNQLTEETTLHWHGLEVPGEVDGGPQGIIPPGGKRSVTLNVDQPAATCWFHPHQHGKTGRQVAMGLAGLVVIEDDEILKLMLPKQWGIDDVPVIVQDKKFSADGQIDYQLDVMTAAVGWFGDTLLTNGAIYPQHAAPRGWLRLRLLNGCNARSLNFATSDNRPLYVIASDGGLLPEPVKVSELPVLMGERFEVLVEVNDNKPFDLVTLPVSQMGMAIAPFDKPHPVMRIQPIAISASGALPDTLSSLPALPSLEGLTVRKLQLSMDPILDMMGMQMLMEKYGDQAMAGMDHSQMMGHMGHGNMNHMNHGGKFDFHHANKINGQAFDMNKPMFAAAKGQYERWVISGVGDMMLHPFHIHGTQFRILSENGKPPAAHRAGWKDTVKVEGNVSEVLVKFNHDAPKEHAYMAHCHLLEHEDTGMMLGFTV

T2: CueO-12.1 (E. coli, UniProt P36649 29-516, M358I | 12.1 peptide replaced residues 384–394 (translated from primers 9 and …))
T2 construct: signal peptide in the construct; source: E. coli BL21(DE3), purified (HisTrap)
T2 sequence (looked up): T1 sequence (looked up) with M357P, G358R, H359F, G361D, H362Y, G363W, N364E, M365G, N366L, H367N

T3: CueO-PMI (E. coli, UniProt P36649 29-516, M358I | PMI peptide insert (translated from primers 13 and 14, Table 3: 385-395 …))
T3 construct: signal peptide in the construct; source: E. coli BL21(DE3), purified (HisTrap)
T3 sequence (looked up): T1 sequence (looked up) with M357T, G358S, H359F, M360A, G361E, H362Y, G363W, M365L, N366L, H367S

B1: CueO-PM2 (designed binder)
chain: AERPTLPIPDLLTTDARNRIQLTIGAGQSTFGGKTATTWGYNGNLLGPAVKLQRGKAVTVDIYNQLTEETTLHWHGLEVPGEVDGGPQGIIPPGGKRSVTLNVDQPAATCWFHPHQHGKTGRQVAMGLAGLVVIEDDEILKLMLPKQWGIDDVPVIVQDKKFSADGQIDYQLDVMTAAVGWFGDTLLTNGAIYPQHAAPRGWLRLRLLNGCNARSLNFATSDNRPLYVIASDGGLLPEPVKVSELPVLMGERFEVLVEVNDNKPFDLVTLPVSQMGMAIAPFDKPHPVMRIQPIAISASGALPDTLSSLPALPSLEGLTVRKLQLSMDPILDMMGMQMLMEKYGDQAMAGMDHSQMTSFAEYWALLSMNHGGKFDFHHANKINGQAFDMNKPMFAAAKGQYERWVISGVGDMMLHPFHIHGTQFRILSENGKPPAAHRAGWKDTVKVEGNVSEVLVKFNHDAPKEHAYMAHCHLLEHEDTGMMLGFTV
B2: MDM2(6–125) (domain or fragment, UniProt Q00987 6-125, looked up)
chain: MSVPTDGAVTTSQIPASEQETLVRPKPLLLKLLKSVGAQKDTYTMKEVLFYLGQYIMTKRLYDEKQQHIVYCSNDLLGDLFGVPSFSVKEHRKIYTMIYRNLVVVNQQESSDSGTSVSEN

The test “MDM2(6–125)” deals with B2. The test can be described thus: cell-based or functional assay.
The target of another test is T1, CueO (M358I). The test can be described thus: fluorescence polarisation; competitive fluorescence anisotropy; CueO proteins titrated against 150 nM MDM2(6–125) and 50 nM FITC-labeled 12.1 peptide; PBS, 3% DMSO, 0.1% Tween 20; apparent Kd. Particulars: both partners purified.
In a further test the target is T2, CueO-12.1. The test is described as above. Particulars: both partners purified.
The target in another test is T3, CueO-PMI. The description is as above. The settings on record: both partners purified.
The test “CueO-PM2” concerns the target B1. The test is described as above. Particulars: both partners purified.

Positions count from the first letter of the chain named.

Consider B1, for which, in the test with MDM2(6–125), the “kcat of syringaldazine oxidation by CueO-PM2 preincubated with 10 μM MDM2, against CueO-PM2 alone” value is ~1.6 fold.
For B2, the Kd is 44300 nM with CueO (M358I), 722 nM with CueO-12.1, 28 nM with CueO-PMI and 25 nM with CueO-PM2.

The values are drawn from publication PMC6497955, “Development and structural characterization of an engineered multi-copper oxidase reporter of protein–protein interactions” (The Journal of Biological Chemistry, 2019).
